The values below come from publication PMC10757926, “Two birds with one stone: human SIRPα nanobodies for functional modulation and in vivo imaging of myeloid cells” (Frontiers in Immunology, 2023).

The labels stand for the following.
B1: hSIRPα Nb S12 (VHH)
VHH: QVQLVESGGGLVQPGGSLRLSCLVSGFSSSYYAIGWFRQAPGKEREGVSCITRSGDTTNYADSVKGRFTISRDDARNTVYLQMNSLKTEDTAVYSCALWAWAGSGRLRCTASEYGHWGQGTQVTVSS
notes: selected against the entire extracellular portion of hSIRPα; source: E. coli XL-1, purified (IMAC, SEC); not shown: His tag (from the IMAC purification)
B2: hSIRPα Nb S41 (VHH)
VHH: HVQLVESGGGLVQPGGSLRLSCAASGETLDYYAIGYVRQAPGKEREGVSCISSRGDNTNYADSVKGRFTISRDNANNTVYLQMNSLKPEDTAVYYCVAIKDSWQNYYCSVGWVEYDVWGQGTQVTVSS
notes: selected against domain 1 of hSIRPα; source: E. coli XL-1, purified (IMAC, SEC); not shown: His tag (from the IMAC purification)
B3: hSIRPα Nb S8 (VHH)
VHH: QVQLVESGGGLVQPGGSLRLSCADSEFRLDEYATGWFRQAPGKEREGVACISRSGSNTKYTDSVKGRFTISRDNAKKTVYLQMNSLKPEDTAVYYCAADLTSHYLSCSSYTDYNSWGQGTQVTVSS
notes: as for B1
B4: hSIRPα Nb S44 (VHH)
VHH: QVQLQESGGGLVQPGGSLRLACAASGFTFSSYDMSWVRQAPGKGLEWVSDIKSGGGRTYYADSVKGRFTISRDNAKNTVYLQMNSLKPEDTAVYYCGSLDNSGAYTGGGQGSQVTVSS
notes: as for B2
B5: hSIRPα Nb S45 (VHH)
VHH: HVQLVESGGGLVQPGGSLRLSCAARGFSFRDSAMSWARQAPGKGLEWVGAIYSDGSTVYEKSVKGRFTISRDNAKNTMYLQMHSLKPEDSARYYCAPKGVVADEGDYSGQGTLVTVSS
notes: as for B2
B6: hSIRPα Nb S33 (VHH)
VHH: EVQLVESGGGLVQPGGSLRLSCTTSGFTLDYYSVGWFRQAPGKEREGVSCITASGSSTNYANSVKGRFTISRDKVKNTVYLQMSSLKPEDTAVYYCAAEPCTVVAGILQAPTSDFGSWGQGTQVTVSS
notes: as for B1
B7: hSIRPα Nb S7 (VHH)
VHH: HVQLVESGGGLVQVGDSLRLSCAPSGRTFRAYAMAWFRQAPGKEREFVAAIRWIGGTPSYKDSVKGRFTISRDNARNTFYLQMNSLEPQDTGVYYCAAEETQKGSGLGHDGRHYDYWGQGTPVTVSS
notes: as for B1
B8: hSIRPα Nb S29 (VHH)
VHH: EVQLVESGGGLVQPGGSLRLSCAASGFTSETYAIGWFRQAPGKEREGVSCISNDGGSRNYADSVKGRFTISRDNAKNTSYLQMNSLKPEDTAVYYCAAGKYYYCLGYVSDGMDYWGKGTPVTVSS
notes: as for B1
B9: hSIRPα Nb S17 (VHH)
VHH: QVQLVESGGGLVQPGGSLRLSCAASGFTLDSYVIGWFRQAPGKEREGVSCISQRIGSTDYADSVKGRFTISKDNAKNTAYLQMNALKPEDTAVYYCAAGRLYYSGTYCPQGGMSYWGKGSPVTVSS
notes: as for B1
B10: hSIRPα Nb S14 (VHH)
VHH: EVQLVESGGGLVQPGGSLRLSCAASGFTANSYRMTWVRQAPGKGLEWVADIGTGNEWKYYPDSVKGRFTISRDAAKNTVYLQMNSLKPEDTAVYYCAKNGAVWYGEDGLDYWGKGTLVTVSS
notes: as for B1
B11: hSIRPα Nb S21 (VHH)
VHH: DVQLVESGGGLVQPGGSLTLSCAASGFTSGTYALAYFRQAPGKEREGVSCISNDGGSRNYADSVKGRFTISRDNAKNTMYLQMNSLKPEDTAVYYCAAGPWYYCSDFARRPDGMDYWGKGTPVTVSS
notes: as for B1
B12: hSIRPα Nb S43 (VHH)
VHH: HVQLVESGGGLVQPGGSARLSCAASGFDLDYFAIGWFRQAPGKEREGVSCISTRSETTNYVDSVKGRFTISRDNAISTVYLQMNNLKPEDTAVYYCAADWADWTMTGCQMTWDDYNYWGQGAQVTVSS
notes: as for B2
B13: hSIRPα Nb S42 (VHH)
VHH: HVQLVESGGGLVQPGGSLRLSCAASGFIFSGYAMSWVRQAPGKGLEWVSDISSDGVRLYYADSVKGRFTISRDNAKNTVYLEMTSLKPDDTALYYCATSSDPQLGLDLWGKGTPVTVSS
notes: as for B2

T6 sequence (P78324 whole entry, looked up, tested part not stated): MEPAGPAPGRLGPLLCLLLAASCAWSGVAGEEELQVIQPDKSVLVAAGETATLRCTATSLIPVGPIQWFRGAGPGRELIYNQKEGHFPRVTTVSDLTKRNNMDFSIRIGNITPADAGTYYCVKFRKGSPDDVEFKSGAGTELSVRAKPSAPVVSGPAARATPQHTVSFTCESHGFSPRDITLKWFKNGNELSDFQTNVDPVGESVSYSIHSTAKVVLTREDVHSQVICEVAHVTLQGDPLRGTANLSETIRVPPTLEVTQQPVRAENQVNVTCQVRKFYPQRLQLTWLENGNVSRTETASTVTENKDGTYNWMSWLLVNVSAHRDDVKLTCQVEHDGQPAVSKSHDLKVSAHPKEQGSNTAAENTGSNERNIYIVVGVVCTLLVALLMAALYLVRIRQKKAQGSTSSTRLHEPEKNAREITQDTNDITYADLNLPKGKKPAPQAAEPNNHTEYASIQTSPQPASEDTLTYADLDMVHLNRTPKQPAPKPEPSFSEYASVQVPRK
T3 sequence (P97797 32-513): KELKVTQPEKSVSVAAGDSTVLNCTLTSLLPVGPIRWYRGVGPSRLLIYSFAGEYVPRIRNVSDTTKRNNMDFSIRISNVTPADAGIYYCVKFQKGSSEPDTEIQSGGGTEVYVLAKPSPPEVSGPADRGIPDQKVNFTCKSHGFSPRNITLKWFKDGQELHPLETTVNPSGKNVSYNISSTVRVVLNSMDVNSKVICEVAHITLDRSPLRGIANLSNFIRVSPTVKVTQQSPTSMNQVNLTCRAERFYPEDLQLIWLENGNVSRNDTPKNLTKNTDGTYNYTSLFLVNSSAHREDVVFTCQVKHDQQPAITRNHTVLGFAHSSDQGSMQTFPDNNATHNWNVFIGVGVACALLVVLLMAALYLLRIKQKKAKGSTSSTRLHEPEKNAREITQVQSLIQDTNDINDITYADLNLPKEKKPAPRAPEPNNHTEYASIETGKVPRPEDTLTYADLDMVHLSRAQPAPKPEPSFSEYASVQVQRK
T1 sequence (P78324 31-373): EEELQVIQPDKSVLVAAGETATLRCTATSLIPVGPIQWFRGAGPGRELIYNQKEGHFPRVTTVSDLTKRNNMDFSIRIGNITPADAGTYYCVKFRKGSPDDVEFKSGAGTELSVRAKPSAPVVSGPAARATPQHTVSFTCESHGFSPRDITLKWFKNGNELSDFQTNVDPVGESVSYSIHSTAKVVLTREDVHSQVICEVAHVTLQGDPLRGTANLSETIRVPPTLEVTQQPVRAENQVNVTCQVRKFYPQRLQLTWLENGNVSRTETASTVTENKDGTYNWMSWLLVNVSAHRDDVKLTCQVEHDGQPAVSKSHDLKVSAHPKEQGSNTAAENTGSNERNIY

The first test addresses T1, biotinylated recombinant hSIRPα (extracellular portion) (Homo sapiens, UniProt P78324, biotin (Sulfo-NHS-LC-LC-Biotin)).
T1 construct: signal-regulatory protein α (SIRPα), human, recombinant extracellular portion; also called biotinylated hSIRPα; signal-regulatory protein α; source: bought: Acrobiosystems
The test is described as follows: BLI; epitope binning: two consecutive association steps with different Nbs on recombinant hSIRPα. The conditions noted are these: both partners purified. (In BLI a coated tip is dipped into the sample, and binding shifts an interference pattern.)
For B1, the binding result was “binds”.

For B2, the binding result is “binds”.

For B3, the binding result is given as “binds”.

In the case of B4, the binding result is recorded as “binds”.

Turning to B5, the binding result is recorded as “binds”.

Turning to B6, the binding result is recorded as “binds”.

In the next test the target is T2, recombinant hSIRPα (human, UniProt P78324).
T2 construct: signal-regulatory protein α (SIRPα), human, recombinant extracellular portion; source: bought: Acrobiosystems
T2 sequence (P78324 31-373): as above
The test is described as follows: HDX-MS; hSIRPα with Nb S8, S33 or S36; methods not in the text shown. To be noted: both partners purified.
For B3, the binding result is given as “binds”.

Turning to B6, the binding result is “binds”.

A further test has as its target T3, murine SIRPα displayed on U2OS cells (Mus musculus, UniProt P97797).
T3 construct: signal-regulatory protein α (SIRPα), mouse; also called mouse SIRPα; source: U2OS, transiently expressing, on live cells
The test can be described thus: immunostaining of cells or tissue; live-cell immunofluorescence on U2OS cells expressing the target; unlabeled Nbs (1 nM to 100 nM) with Cy5-labeled anti-VHH, 1 h at 37°C. To be noted: one partner purified.
On to B1, for which the binding result was “no binding (tested: Nbs 1 nM to 100 nM)”.

On to B2, for which the binding result is “no binding (tested: Nbs 1 nM to 100 nM)”.

On to B3, for which the binding result is “no binding (tested: Nbs 1 nM to 100 nM)”.

As for B7, the binding result is “no binding (tested: Nbs 1 nM to 100 nM)”.

On to B4, for which the binding result was “no binding (tested: Nbs 1 nM to 100 nM)”.

For the molecule B5, the binding result is reported as “no binding (tested: Nbs 1 nM to 100 nM)”.

B6: the binding result is “no binding (tested: Nbs 1 nM to 100 nM)”.

In another test the target is T4, full-length hSIRPα on U2OS cells (Homo sapiens, UniProt P78324).
T4 construct: signal-regulatory protein α (SIRPα), human, full-length, co-expressed with IRES-derived GFP; also called U2OS-hSIRPα; source: U2OS, stably expressing, on live cells
T4 sequence (P78324 31-504): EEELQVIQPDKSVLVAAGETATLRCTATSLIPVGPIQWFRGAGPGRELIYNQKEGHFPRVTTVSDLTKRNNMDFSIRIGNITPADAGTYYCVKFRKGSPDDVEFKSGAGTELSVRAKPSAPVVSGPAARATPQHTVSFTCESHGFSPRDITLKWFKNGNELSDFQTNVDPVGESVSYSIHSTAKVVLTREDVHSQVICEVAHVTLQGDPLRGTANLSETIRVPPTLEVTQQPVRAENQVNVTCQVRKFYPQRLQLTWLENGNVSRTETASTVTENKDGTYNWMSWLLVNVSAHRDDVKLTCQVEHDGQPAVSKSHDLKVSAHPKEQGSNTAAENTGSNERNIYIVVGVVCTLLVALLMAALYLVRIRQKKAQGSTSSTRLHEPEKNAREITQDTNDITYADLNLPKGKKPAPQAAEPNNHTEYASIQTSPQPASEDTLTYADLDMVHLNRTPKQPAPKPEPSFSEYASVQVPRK
The description is as above. To be noted: one partner purified.
For the molecule B8, the binding result was “binds”.

B1: the binding result is given as “binds”.

For the molecule B9, the binding result was “binds”.

B2: the binding result was “binds”.

Take B3: the binding result was “binds”.

For B10, the binding result is “binds”.

B11: the binding result was “binds”.

For B7, the binding result is recorded as “binds”.

For B12, the binding result is recorded as “binds”.

Take B4: the binding result is recorded as “binds”.

B5: the binding result is given as “binds”.

Regarding B6, the binding result was “binds”.

Turning to B13, the binding result was “binds”.

Another test deals with T5, hSIRPα domain 1 displayed on U2OS cells (Homo sapiens, UniProt P78324).
T5 construct: signal-regulatory protein α (SIRPα), human, domain 1; also called hSIRPαD1; D1; source: U2OS, transiently expressing, on live cells
T5 sequence (P78324 whole entry, looked up, tested part not stated): as the sequence (P78324 whole entry, looked up, tested part not stated) above
The test is described as above. The conditions noted are these: one partner purified.
Take B1: the binding result is recorded as “binds”.

For the molecule B9, the binding result was “binds”.

As for B2, the binding result was “binds”.

With B10, the binding result is “binds”.

Take B12: the binding result is recorded as “binds”.

B4: the binding result was “binds”.

As for B5, the binding result is “binds”.

Turning to B13, the binding result is recorded as “binds”.

Another test concerns the target T6, hSIRPα domain 3 displayed on U2OS cells (Homo sapiens, UniProt P78324).
T6 construct: signal-regulatory protein α (SIRPα), human, domain 3; also called hSIRPαD3; D3; source: U2OS, transiently expressing, on live cells
The test is described as above. The conditions noted are these: one partner purified.
Regarding B8, the binding result is on record as “no binding (tested: Nbs 1 nM to 100 nM)”.

As to B1, the binding result is reported as “no binding (tested: Nbs 1 nM to 100 nM)”.

As for B9, the binding result is “no binding (tested: Nbs 1 nM to 100 nM)”.

As to B2, the binding result was “no binding (tested: Nbs 1 nM to 100 nM)”.

For the molecule B3, the binding result is reported as “no binding (tested: Nbs 1 nM to 100 nM)”.

On to B10, for which the binding result is “no binding (tested: Nbs 1 nM to 100 nM)”.

Take B11: the binding result was “no binding (tested: Nbs 1 nM to 100 nM)”.

Turning to B7, the binding result is on record as “binds”.

As to B12, the binding result is “no binding (tested: Nbs 1 nM to 100 nM)”.

For the molecule B4, the binding result is reported as “no binding (tested: Nbs 1 nM to 100 nM)”.

With B5, the binding result is listed as “no binding (tested: Nbs 1 nM to 100 nM)”.

As for B6, the binding result is reported as “no binding (tested: Nbs 1 nM to 100 nM)”.

For B13, the binding result is “no binding (tested: Nbs 1 nM to 100 nM)”.

For a further test, the target named is T7, hSIRPα-V1 displayed on U2OS cells (Homo sapiens, allele V1, UniProt P78324).
T7 construct: signal-regulatory protein α (SIRPα), human, allelic variant V1; also called hSIRPα variant V1; source: U2OS, transiently expressing, on live cells
T7 sequence (P78324 31-504): as the sequence (P78324 31-504) above
The description is as above. To be noted: one partner purified.
For the molecule B3, the binding result is listed as “binds”.

Regarding B7, the binding result was “binds”.

Regarding B5, the binding result is given as “binds”.

With B6, the binding result is reported as “binds”.

In a further test the target is T8, hSIRPα domain 2 displayed on U2OS cells (Homo sapiens, UniProt P78324).
T8 construct: signal-regulatory protein α (SIRPα), human, domain 2; also called hSIRPαD2; D2; source: U2OS, transiently expressing, on live cells
T8 sequence (P78324 whole entry, looked up, tested part not stated): as the sequence (P78324 whole entry, looked up, tested part not stated) above
Described as above. To be noted: one partner purified.
With B8, the binding result is “binds”.

Take B9: the binding result is “binds”.

B3: the binding result was “binds”.

Turning to B10, the binding result is “binds”.

As to B11, the binding result is listed as “binds”.

Take B6: the binding result is listed as “binds”.

For the next test, the target named is T9, hSIRPβ1 displayed on U2OS cells (Homo sapiens, UniProt O00241).
T9 construct: signal-regulatory protein β1 (SIRPβ1), human; source: U2OS, transiently expressing, on live cells
T9 sequence (O00241 30-398): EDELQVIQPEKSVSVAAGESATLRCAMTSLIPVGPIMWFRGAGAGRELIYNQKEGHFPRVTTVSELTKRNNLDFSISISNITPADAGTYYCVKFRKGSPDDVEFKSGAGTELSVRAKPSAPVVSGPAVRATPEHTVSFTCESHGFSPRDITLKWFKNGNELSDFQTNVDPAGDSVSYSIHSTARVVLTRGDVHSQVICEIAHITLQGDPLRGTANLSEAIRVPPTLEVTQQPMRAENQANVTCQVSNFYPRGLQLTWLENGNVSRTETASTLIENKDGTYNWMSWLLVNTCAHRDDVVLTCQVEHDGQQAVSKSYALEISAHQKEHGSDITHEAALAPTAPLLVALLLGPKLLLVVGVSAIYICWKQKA
The test is described as above. The conditions noted are these: one partner purified.
B1: the binding result is recorded as “binds”.

For B2, the binding result is reported as “binds”.

Regarding B3, the binding result is “binds”.

Regarding B7, the binding result is reported as “binds”.

Regarding B4, the binding result is given as “binds”.

As for B5, the binding result is reported as “binds”.

Consider B6, for which the binding result was “binds”.

In another test the target is T10, hSIRPγ displayed on U2OS cells (Homo sapiens, UniProt Q9P1W8).
T10 construct: signal-regulatory protein γ (SIRPγ), human; also called hSIRPy; source: U2OS, transiently expressing, on live cells
T10 sequence (Q9P1W8 29-387): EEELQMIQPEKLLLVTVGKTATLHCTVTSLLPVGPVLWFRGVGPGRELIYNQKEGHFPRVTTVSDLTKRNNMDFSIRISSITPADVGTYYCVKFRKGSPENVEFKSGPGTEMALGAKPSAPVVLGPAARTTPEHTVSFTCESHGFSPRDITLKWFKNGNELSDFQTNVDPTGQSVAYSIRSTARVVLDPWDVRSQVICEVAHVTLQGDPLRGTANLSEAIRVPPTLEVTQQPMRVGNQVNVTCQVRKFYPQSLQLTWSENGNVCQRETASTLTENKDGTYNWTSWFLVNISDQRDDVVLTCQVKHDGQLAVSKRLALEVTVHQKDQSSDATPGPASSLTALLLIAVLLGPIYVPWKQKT
The description is as above. To be noted: one partner purified.
Regarding B1, the binding result was “binds”.

Turning to B3, the binding result is listed as “binds”.

Regarding B4, the binding result is listed as “binds”.

Regarding B5, the binding result is reported as “no binding (tested: Nbs 1 nM to 100 nM)”.
